From paper PMC6900475 come the findings set out here.

The target in assay [1] is SK.Plg* activator complex of SKC2 (α_(STAB)-βG88-γ_(STAB)) (group A streptococcus (GAS), STAB902 | group G streptococcus (GGS), G88 | not stated).
For assay [2], the target named is SK.Plg* activator complex of SKC1 (αG88-β_(STAB)-γG88) (group G streptococcus (GGS), G88 | group A streptococcus (GAS), STAB902 | not stated).

On to plasminogen (natural protein), for which the K m (µM), proteolytic constants: Plg activation by the SK.Plg* complex against substrate Plg 0.3 to 5.0 µM, S2251 hydrolysis at 405 nm, 37 °C amounted to 3.73 µM in assay [1] and 1.09 µM in assay [2].
